Test results published in US6506595.

Columns and labels:
[1] = target: MWPmp20-(His)6-EGF-TEV-Somatostatin 28

B1: TEV protease (GIBCO BRL) (protein)
chain: GESLFKGPRDYNPISSTICHLTNESDGHTTSLYGIGFGPFIITNKHLFRRNNGTLLVQSLHGVFKVKNTTTLQQHLIDGRDMIIIRMPKDFPPFPQKLKFREPQREERICLVTTNFQTKSMSSMVSDTSCTFPSSDGIFWKHWIQTKDGQCGSPLVSTRDGFIVGIHSASNFTNTNNYFTSVPKNFMELLTNQEAQQWVSGWRLNADSVLWGGHKVFMSKPEEPFQPVKEATQLMNELVYSQ
[1]
  cleavage of the fusion protein, shown by Western blotting: somatostatin 28 was cleaved out with TEV protease
MWPmp20-TEV-G-GH
  cleavage of the fusion protein, shown by SDS-PAGE and Western blotting: the mutant human growth hormone G-GH with extra Gly at the N-terminus was cleaved at the same position (as indicated by an arrow) as the commercially available human growth hormone
